Patent US20140072563A1 (Regeneron, published 2014)
Substitutions are numbered along the chain they refer to. Names and notes keep the numbering of the source.

T1: ErbB3-mFc (human)
T1 construct: Dimeric soluble ErbB3; also called hErbB3.mFc
T1 chain: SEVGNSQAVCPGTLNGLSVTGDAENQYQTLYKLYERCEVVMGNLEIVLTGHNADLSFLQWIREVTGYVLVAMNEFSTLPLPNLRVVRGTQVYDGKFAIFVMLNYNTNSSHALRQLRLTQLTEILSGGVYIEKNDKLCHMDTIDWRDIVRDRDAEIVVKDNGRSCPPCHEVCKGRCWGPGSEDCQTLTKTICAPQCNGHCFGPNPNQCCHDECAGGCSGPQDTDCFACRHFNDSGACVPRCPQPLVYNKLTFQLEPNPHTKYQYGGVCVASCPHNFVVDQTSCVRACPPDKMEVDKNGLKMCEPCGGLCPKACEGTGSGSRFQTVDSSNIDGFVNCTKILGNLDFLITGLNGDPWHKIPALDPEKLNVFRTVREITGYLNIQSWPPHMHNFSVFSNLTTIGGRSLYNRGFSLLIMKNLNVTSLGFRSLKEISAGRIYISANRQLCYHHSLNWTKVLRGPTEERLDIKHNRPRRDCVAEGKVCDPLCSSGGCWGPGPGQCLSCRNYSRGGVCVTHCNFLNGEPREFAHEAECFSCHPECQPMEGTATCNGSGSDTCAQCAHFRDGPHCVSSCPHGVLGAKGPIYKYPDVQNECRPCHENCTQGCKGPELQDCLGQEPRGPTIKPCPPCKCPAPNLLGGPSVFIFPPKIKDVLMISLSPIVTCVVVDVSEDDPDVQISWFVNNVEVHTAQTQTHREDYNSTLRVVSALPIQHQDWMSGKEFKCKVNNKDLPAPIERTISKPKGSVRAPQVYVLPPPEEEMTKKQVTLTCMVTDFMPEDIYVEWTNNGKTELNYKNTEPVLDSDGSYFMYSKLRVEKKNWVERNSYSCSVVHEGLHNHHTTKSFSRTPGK

T2: hErbB3.mFc (soluble dimeric human ErbB3 extracellular domain fused to mouse Fc) (human)
T2 construct: called dimeric
T2 chain: T1 chain

B1: H4H1819N (antibody, human IgG4, V domains shown)
VH: EVQLVESGGGVVRPGGSLRLSCAASGFTFDDYAMHWVRQAPGKGLEWVAGISWNSGSIDYADSVKGRFTISRDNAKNSLYLQMNSLRAGDTALYYCAKDILDLDYYGLDVWGQGTTVTVSS
VL: DIQMTQSPSSLSASVGDRVTITCRASQDISSYLAWYQQKPGKVPNLLIYDASSLQSGVPSRFSGSGSGTDFTLTLSSLQPEDFASYYCQNYNSAPYTFGQGTKLEIK
notes: Human IgG4 Fc (prefix H4H)
B2: H4H1821N (antibody, human IgG4, V domains shown)
VH: EVQLVESGGGLVQPGRSLRLSCAASGFTFDDYAMHWVRQAPGKGLEWVSSISWNSGSIGYADSVKGRFTISRDNAKNSLYLQMNSLKPEDTALYYCTKDTDYGDYLDAFDIWGQGTMVAVAS
VL: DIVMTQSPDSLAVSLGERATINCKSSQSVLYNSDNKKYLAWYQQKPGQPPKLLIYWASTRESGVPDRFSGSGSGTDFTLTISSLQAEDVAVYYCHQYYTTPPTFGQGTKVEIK
notes: Human IgG4 Fc (prefix H4H); In the H/D exchange experiment it was covalently attached to NHS agarose beads
B3: H4H2084P (antibody, human IgG4, V domains shown)
VH: QVQLVESGGGVVQSGKSLRLSCVASGFTFSNYGMHWVRQTPGKGLEWVARIWFDGTNKYYTDSVKGRFTLSRDSSKNTLYLQMNSLRAEDTAVYFCAREESLELDHYVMDVWGQGTTVTVSS
VL: AIQMTQSPSSLSASVGDRVTITCRASQDIRDDLGWFQQKPGKAPNLLIYAASSLQSGVPSRFSGSGSGTDFTLTISSLQPEDFATYYCLQDYNYPLTFGGGTKVEIKR
notes: Human IgG4 Fc (prefix H4H)
B4: H4H2092P (antibody, human IgG4, V domains shown)
VH: EVQLVESGGGVVRPGGSLRLSCAASGFTFEDYGMNWVRQVPGKGLEWVSGTNWNGGITGYTGSVKGRFTISRDNAKNSLYLQMNSLRAEDTALYHCARDSGDQDAFDIWGQGTMVTVSS
VL: DIQLTQSPSFLSASVGDRVTITCWASQDISSYLAWYQQKPGKAPKLLIYAASTFQSGVPSRFSGSGSGTEFTLTISNLQPEDFATYYCQQLDSYPLSFGGGTKVEIKR
notes: Human IgG4 Fc (prefix H4H)
B5: H4H2094P (antibody, human IgG4, V domains shown)
VH: EVQLVESGGGLVQPGGSLRLSCAASGFTFSSYDMHWVRQATGKGLEWVSAIGPAGDTYYPVSAMGRFTISRDDAKNSLYLQMNSLRAGDTAVYYCAREGVTIRPDDYFGLDVWGQGTTVTVSA
VL: B4 VL with D28G, S31D, Q38K, K45Q, S52T, F54L, N77S, D92N, S93T, S97T
notes: Human IgG4 Fc (prefix H4H)
B6: H4H2098P (antibody, human IgG4, V domains shown)
VH: QVQLVESGGGVVQPGRSLRLSCAASGFTFSSFGMHWVRQAPGKGLEWVAVIWYVEINKYHADSVKGRFTISRDDSKNTVYLQMNSLRAEDTAVYYCARDWNDGDYGMDVWGQGTTVTVSS
VL: DIQLTQSPSFLSASVGDRVTITCWASQGISSFLAWYQQKAGKAPRLLIYAASTLQTGVPSRFSGSGSGTEFTLTISSLQPGDFATYHCQQLNSYPYTFGQGTKLEIKR
notes: Human IgG4 Fc (prefix H4H)
B7: H4H2102P (antibody, human IgG4, V domains shown)
VH: EVQLVESGGGLVQPGGSLRLSCAASGFTFSNYDIHWVRQATGKGLEWVSAIGPAGDTYYSDSVKGRFTISREDAKNSLYLQMSSLRAGDTAVYYCASEGIAVRPDDYYGMDVWGQGTTVTVSA
VL: B4 VL with S30T, Q38K, F54L, N77S, T85A, D92N, S97T, E105D
notes: Human IgG4 Fc (prefix H4H)
B8: H4H2108P (antibody, human IgG4, V domains shown)
VH: EVQLLESGGDLVQPGGSLRLSCATSGFSFSSDAMNWVRQAPGKGLEWVSGISGSGGNTYYADSVKGRFTISRDISKSTLSLQMNSLRAEDTAVYYCAKEGTNMVRGVVMEDNGMDVWGQGTTVTVSA
VL: DIQMTQSPSSVSASVGDRVTITCRASQGISDYLAWYQQKPGKAPKLLIYAASSLQSGVPSRFSGRGSGTDFTLTISTLQPEDFATYYCQQANSFPLTFGGGTKVDIKR
notes: Human IgG4 Fc (prefix H4H)
B9: H4H2111P (antibody, human IgG4, V domains shown)
VH: QVQLVESGGGVVQPGRSLRLSCAASGFTFNNYGMHWVRQAPGKGLAWVAVMWYSESHKYYADSVKGRFTISRDNSKNTLYLEMNSLRVEDTAIYYCARDLGDPDAFDIWGQGTMVTVSS
VL: B4 VL with D28G, A50G, F54L, N77S, D92N, S97T
notes: Human IgG4 Fc (prefix H4H)
B10: H4H2114P (antibody, human IgG4, V domains shown)
VH: QVQLVESGGGVVQPGRSLRLSCAASGFTFSSYGMHWVRQAPGKGLEWVAGMSYDGSSKYYEDSVKGRFTISRDNSKNTLNLQMNSLRVEDTAVYYCAKERDYVEYVDSYYGMDVWGQGTTVTVSA
VL: B3 VL with D28G, D31N, F36Y, N45K, L46V, D70V
notes: Human IgG4 Fc (prefix H4H)
B11: H4H2148P (antibody, V domains shown)
VH: EVQLVESGGGLVHPGRSLRLSCAASGFTFDDYAMHWVRQSPGKGLEWVSGISWNSVIKHSTDSVRGRFTISRDNAKNSLYLQMNSLKPEDTAFYYCAKDEDDWNYLDYWGQGTLVTVSS
VL: DIQMTQSPSSVSASVGDRVTITCRASQDINSWLAWYQQKPGKAPKLLIYTSSNLQSGVPSRFSGSGSGTDFTLTISSLQPEDFATYYCQQSDSFPFTFGPGTKVDIKR
notes: Fully human, human IgG4 Fc (H4H prefix)
B12: H4H2151P (antibody, V domains shown)
VH: QVQLVESGGGVVQPGRSLRLSCAASGFTFSNYGMHWVRQAPGKGLEWVARIWYDGSNKYYADSVKGRFTISRDSSKNTLYLQMNSLRAEDTAVYYCAREGEQNLDYYPLDVWGQGTTVTVSS
VL: DIVMTQSPSSLSASVGDRVTITCRASQDIRNDLGWYQQKPGKAPKLLIYAASSLQTGVPSRFSGSVSGTDFTLTISSLQPEDFATYYCLQDYTYPLTFGGGTKVEIK
notes: as for B11
B13: H4H2153P (antibody, V domains shown)
VH: QVQLVQSGAEVKKPGASVKVSCKASGYTFTRYGISWVRQAPGLGLEWMGWISAYDGYTNFAQKFQGRFTMTTDTSTNTAYMELRGLRSDDTAVYYCAREEEDAAFDIWGQGTMVTVSS
VL: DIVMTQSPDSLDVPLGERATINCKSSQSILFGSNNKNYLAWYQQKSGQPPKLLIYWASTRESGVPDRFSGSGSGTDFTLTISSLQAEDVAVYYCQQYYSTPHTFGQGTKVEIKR
notes: as for B11
B14: H4H2154P (antibody, V domains shown)
VH: QVQLQESGPGLINPSQTLSVTCTVSGGSISSGGYYWTWIRQHPGKGLEWIGYISYSGNTNYNPSLKSRVTISVDTAKNQFSLKLSSVTAADTAVYFCARDSDVDTAMVDGIDIWGQGTMVTVSS
VL: B11 VL with N30S, K42R, S51A, N53S, Y87F, S91A, D92N
notes: as for B11
B15: H4H2290P (antibody, V domains shown)
VH: EVQLLESGGGLVQPGGSLRLSCVASGFTFSSFAMSWVRQAPGKGLEWVSVISGSGGSTNHADSVRGRFTISRDNSLNTVYLQMHSLRAEDTALYYCVKAETSSSYFYYGMDVWGQGTTVTVSS
VL: DIQLTQSPSFLSASVGDRVTITCWASQDISSYLAWYQQKPGKVPNLLIYGASSLQPGVPSRFSGSGSGTEFTLTISSLQPEDFATYYCQQLNNYPTFGGGTKLEIKR
notes: as for B11

Target: T1, ErbB3-mFc
Assay: blocking ELISA: antibody (0-50 nM) + 50 pM ErbB3-mFc, binding to coated neuregulin1b
Source text: To further characterize anti-hErbB3 mAbs of the present invention, their ability to block ligand binding was examined via ELISA. […] Plates were washed and non-sequestered (plate bound) ErbB3 was detected with an anti-Fc poly conjugated with horseradish peroxidase (HRP). Plates were developed with TMB (3,3′,5,5′-tetramethylbenzidine) and neutralized with sulfuric acid before reading absorbance at 450 nm on a Victor X5 plate reader. Data analysis used a sigmoidal dose-response model within Prism™ software. […] Maximal blocking for each antibody was calculated by taking the difference in absorbance from zero to 50 nM antibody on the inhibition curve, divided by the difference in absorbance from 50 pM to zero ErbB3 on the dose curve.

| Binder | IC50 [nM] | Maximal Blocking (%) |
| --- | --- | --- |
| B1 | 0.02 | 99 |
| B2 | 0.018 | 99 |
| B3 | 0.0873 | 95 |
| B4 | 0.0594 | 100 |
| B5 | 0.09 | 92 |
| B6 | 0.135 | 95 |
| B7 | 0.186 | 90 |
| B8 | 0.116 | 91 |
| B9 | 0.0497 | 92 |
| B10 | 0.163 | 91 |

These binders were tested against hErbB3.mmh (soluble monomeric human ErbB3 extracellular domain with C-terminal myc-myc-hexahistidine tag) (human, UniProt P21860 20-642) (assay: SPR (Biacore), 25 C, mAb capture format).
Procedure: (§1) (Tables 2-4). Measurements were conducted on a Biacore 2000 or T100 instrument. […] Kinetic association (kₐ) and dissociation (kd) rate constants were determined by processing and fitting the data to a 1:1 binding model using Scrubber 2.0 curve fitting software.

| Binder | Kd [nM] | T½ [h] | koff [s⁻¹] | kon [M⁻¹ s⁻¹] |
| --- | --- | --- | --- | --- |
| B11 | 0.00871 | 5.12 | 3.47e-05 | 3.98e+06 |
| B12 | 0.00942 | 6.2 | 2.86e-05 | 3.04e+06 |
| B13 | 0.0117 | 5.18 | 3.43e-05 | 2.94e+06 |
| B14 | 0.0176 | 4.75 | 3.73e-05 | 2.13e+06 |
| B15 | 0.115 | 2.65 | 6.72e-05 | 582000 |

Target: T2, hErbB3.mFc (soluble dimeric human ErbB3 …)
Assay: SPR (Biacore), 25 C, mAb capture format
Procedure: as §1

| Binder | Kd [nM] | T½ [h] | koff [s⁻¹] | kon [M⁻¹ s⁻¹] |
| --- | --- | --- | --- | --- |
| B11 | 0.000295 | 102 | 1.74e-06 | 5.91e+06 |
| B12 | 0.000213 | 186 | 9.52e-07 | 4.48e+06 |
| B13 | 0.000337 | 143 | 1.24e-06 | 3.67e+06 |
| B14 | 0.0003 | 182 | 9.77e-07 | 3.25e+06 |
| B15 | 0.014 | 15.8 | 1.13e-05 | 800000 |
